Test results taken from US20250144104, “DISCOVERY OF A NEW INHIBITOR FOR THE YTH DOMAIN-CONTAINING M6A RNA READERS” (The Trustees of Boston College, published 2025).

T1: YTHDF1 YTH domain (UniProt Q9BYJ9 Q9BYJ9:375-552)
T1 sequence: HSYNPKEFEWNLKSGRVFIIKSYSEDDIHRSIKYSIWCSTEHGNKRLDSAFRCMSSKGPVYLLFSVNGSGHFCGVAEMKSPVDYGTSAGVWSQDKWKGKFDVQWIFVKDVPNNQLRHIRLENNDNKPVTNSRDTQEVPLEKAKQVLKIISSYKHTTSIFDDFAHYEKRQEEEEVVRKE

T2: YTHDF2 YTH domain (UniProt Q9Y5A9 Q9Y5A9:383-553)
T2 sequence: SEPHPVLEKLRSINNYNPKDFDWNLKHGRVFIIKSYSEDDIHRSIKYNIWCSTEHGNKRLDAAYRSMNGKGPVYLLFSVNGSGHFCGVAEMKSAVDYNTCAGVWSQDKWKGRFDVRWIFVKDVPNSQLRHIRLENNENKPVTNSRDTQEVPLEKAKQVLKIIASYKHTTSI

T3: YTHDF3 YTH domain (UniProt Q7Z739 Q7Z739:391-585)
T3 sequence: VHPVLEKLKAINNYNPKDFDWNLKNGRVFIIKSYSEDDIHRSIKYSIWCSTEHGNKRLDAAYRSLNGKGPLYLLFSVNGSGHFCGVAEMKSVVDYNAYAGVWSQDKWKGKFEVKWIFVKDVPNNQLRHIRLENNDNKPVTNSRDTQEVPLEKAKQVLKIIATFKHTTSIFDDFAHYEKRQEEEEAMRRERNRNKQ

T4: YTHDC2 YTH domain (UniProt Q9H6S0 Q9H6S0:1285-1424)
T4 sequence: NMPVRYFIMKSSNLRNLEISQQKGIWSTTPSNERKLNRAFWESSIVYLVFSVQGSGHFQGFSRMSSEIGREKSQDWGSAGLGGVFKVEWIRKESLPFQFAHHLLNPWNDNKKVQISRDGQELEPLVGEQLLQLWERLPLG


What was measured:
YTHDF1 YTH domain = molecular target: T1, YTHDF1 YTH domain; assay: FP; 25 mM Tris-HCl pH 7.5, 150 mM NaCl, 25 C; details: tags: N-terminal His-tag (pET28a), E. coli BL21(DE3); label: 5'-FAM
Description: (§1) Fluorescence polarization (FP) experiments were performed following the previously reported FP assay conditions for FAM-labeled RNA and YTH domains. Briefly, experiments were conducted in the binding buffer containing 25 mM Tris-HCl, pH 7.5, and 150 mM NaCl[50]. The same binding buffer was used in this study unless otherwise specified. RNA samples were diluted to 50 nM from the stock solutions by the binding buffer. YTH domain proteins were thawed, buffer exchanged into the binding buffer at 4° C. using the 10 kDa-cutoff concentrators (Sigma-Aldrich), and adjusted to 2× of the highest concentration used in the binding assay. […] RNase inhibitor (SUPERaseIn, Invitrogen) was added. 40 L protein solutions with various concentrations were prepared by serial dilution using the binding buffer. Subsequently, we added 40 L diluted RNA into each 40 L protein solution, mixed, and incubated at room temperature for 30 minutes. The final concentration of FAM-m⁶A-RNA or FAM-A-RNA was constant at 25 nM, and the YTH-domain protein concentrations varied from 10 nM to 24 μM. […] After incubation, samples were transferred to a black polypropylene 384-well round-bottom plate (Cellvis) and FP was measured on a Synergy™ Neo2 Multimode Microplate Reader at the wavelength of 485/20 nm for excitation and 528/20 nm for emission at 25° C.

YTHDC1 YTH domain [1] = molecular target: T5, YTHDC1 YTH domain (UniProt Q96MU7 Q96MU7:345-509); assay: EMSA; 20 nM protein, 25 nM RNA, 10 mM HEPES, 50 mM KCl, 1 mM EDTA; complex inhibited by N-7
FTO = FTO (UniProt Q9C0B1 Q9C0B1:1-505); assay: FP; value only in figure; 50 mM borate pH 7.5; details: tags: His-tag (Ni resin purified), E. coli BL21(DE3); label: 5'-FAM
Sequence of FTO (Q9C0B1 whole entry, the tested form may be a part, one chain of several): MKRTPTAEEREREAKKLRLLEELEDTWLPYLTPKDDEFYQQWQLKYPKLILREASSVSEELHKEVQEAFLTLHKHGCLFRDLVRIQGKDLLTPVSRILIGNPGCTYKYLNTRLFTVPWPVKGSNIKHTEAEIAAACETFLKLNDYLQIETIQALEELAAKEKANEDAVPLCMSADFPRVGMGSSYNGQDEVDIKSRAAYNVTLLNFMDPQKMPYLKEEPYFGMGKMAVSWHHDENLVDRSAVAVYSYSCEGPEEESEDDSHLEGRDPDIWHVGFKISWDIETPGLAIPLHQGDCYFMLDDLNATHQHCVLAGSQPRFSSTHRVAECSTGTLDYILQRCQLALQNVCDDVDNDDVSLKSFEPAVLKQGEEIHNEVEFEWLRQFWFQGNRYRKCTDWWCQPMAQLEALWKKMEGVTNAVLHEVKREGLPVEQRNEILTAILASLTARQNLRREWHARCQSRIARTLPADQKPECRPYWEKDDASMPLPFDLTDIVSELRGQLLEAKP

YTHDF2 YTH domain [2] = molecular target: T2, YTHDF2 YTH domain; assay: FP; value only in figure; 25 mM Tris-HCl pH 7.5, 150 mM NaCl; details: tags: N-terminal His-tag (pET28a), E. coli BL21(DE3); label: 5'-FAM
Description: as §1

YTHDF3 YTH domain [3] = molecular target: T3, YTHDF3 YTH domain; assay: as above; details: tags: N-terminal His-tag (pET28a), E. coli BL21(DE3); label: 5'-FAM
Description: as §1

YTHDC2 YTH domain = molecular target: T4, YTHDC2 YTH domain; assay: competition; value only in figure; 10 uM protein, 25 nM FAM-m6A-RNA; details: tags: N-terminal His-tag (pET28a), E. coli BL21(DE3); label: FAM
Description: To set up the FP competition assay, we first used the non-fluorescent “m⁶A-RNA” (FIG. 1C) as a positive control inhibitor. […] Samples were transferred onto the 384-well plate and measured on the plate reader as described above. We obtained the dose-response curves by plotting the FP values against concentrations of inhibitors. The inhibitory curves and IC₅₀ values were obtained using the “Dose-response Inhibition” model in GraphPad Prism6.0™.

YTHDF2 YTH domain [4] = molecular target: T2, YTHDF2 YTH domain; assay: competition; value only in figure; 2 uM protein, 25 nM FAM-m6A-RNA; details: tags: N-terminal His-tag (pET28a), E. coli BL21(DE3); label: 5'-biotin
YTHDC1 YTH domain [5] = molecular target: T5, YTHDC1 YTH domain; assay: as above
YTHDF3 YTH domain [6] = molecular target: T3, YTHDF3 YTH domain; assay: as above; details: tags: N-terminal His-tag (pET28a), E. coli BL21(DE3); label: 5'-biotin

Row | Binder | Kd (YTHDF1 YTH domain) [nM] | binding result (YTHDC1 YTH domain [1]) | binding result (FTO) | binding result (YTHDF2 YTH domain [2]) | binding result (YTHDF3 YTH domain [3]) | binding result (YTHDC2 YTH domain) | binding result (YTHDF2 YTH domain [4]) | binding result (YTHDC1 YTH domain [5]) | binding result (YTHDF3 YTH domain [6])
1 | GAACCGGACUGUCUUA (ssRNA, m6A at position 8) [FAM-m6A-RNA] | 800 | binds | binds | binds | binds | – | – | – | –
2 | GAACCGGACUGUCUUA (ssRNA, m6A at position 8) [m6A-RNA (non-fluorescent)] | – | – | – | – | – | binds | binds | binds | binds
